Source: patent publication US7919091B2, “Lipolysis stimulated receptor (LSR) specific antibodies” (Serono Genetics Institute S.A., priority 1997, dated 2011)

What was measured:
LSR [1] = molecular target: T1, LSR (Rattus norvegicus, UniProt Q9WU74); experiment: LSR activity of binding, internalization and degradation of lipoproteins in the presence of leptin, rat hepatocytes; assay type: cell-based; conditions: increasing concentrations of leptin, difference with/without 500 μM oleate
T1 construct: from tissue; host or cells: rat liver plasma membranes / solubilized rat liver membrane proteins
T1 sequence (Q9WU74 36-593): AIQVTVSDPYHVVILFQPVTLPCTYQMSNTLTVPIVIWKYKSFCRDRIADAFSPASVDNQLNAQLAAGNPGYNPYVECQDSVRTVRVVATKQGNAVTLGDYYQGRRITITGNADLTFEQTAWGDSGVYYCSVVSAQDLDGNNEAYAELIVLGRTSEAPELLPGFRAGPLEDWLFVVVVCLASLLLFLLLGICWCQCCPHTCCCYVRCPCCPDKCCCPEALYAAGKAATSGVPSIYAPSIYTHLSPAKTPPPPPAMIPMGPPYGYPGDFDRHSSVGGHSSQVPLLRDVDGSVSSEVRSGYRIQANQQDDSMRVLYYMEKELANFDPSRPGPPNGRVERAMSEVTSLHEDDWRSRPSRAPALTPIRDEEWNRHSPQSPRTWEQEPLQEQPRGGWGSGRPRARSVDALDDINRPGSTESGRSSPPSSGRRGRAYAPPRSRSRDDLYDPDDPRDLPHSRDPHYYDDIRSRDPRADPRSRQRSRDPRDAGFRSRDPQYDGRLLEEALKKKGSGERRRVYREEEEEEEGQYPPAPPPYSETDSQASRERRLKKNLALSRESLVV
T1 sequence (Q9WU74 36-525 isoform Q9WU74-3 limits assumed): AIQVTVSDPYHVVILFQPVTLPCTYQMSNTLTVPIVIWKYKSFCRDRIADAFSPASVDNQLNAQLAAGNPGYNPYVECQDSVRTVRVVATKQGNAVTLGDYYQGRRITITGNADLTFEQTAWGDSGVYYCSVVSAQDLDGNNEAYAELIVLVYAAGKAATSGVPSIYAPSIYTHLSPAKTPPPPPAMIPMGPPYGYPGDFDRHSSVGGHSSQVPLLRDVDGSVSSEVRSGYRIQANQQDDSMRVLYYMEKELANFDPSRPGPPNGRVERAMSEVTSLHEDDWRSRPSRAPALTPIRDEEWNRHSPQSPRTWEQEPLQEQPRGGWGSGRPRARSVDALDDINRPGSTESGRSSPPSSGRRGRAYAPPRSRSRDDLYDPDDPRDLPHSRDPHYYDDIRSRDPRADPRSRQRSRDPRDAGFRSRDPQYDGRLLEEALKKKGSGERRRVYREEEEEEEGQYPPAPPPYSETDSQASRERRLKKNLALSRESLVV
Procedure: Rat hepatocytes in primary culture are incubated at 37° C. for 30 min with an increasing concentration of leptin, and then incubated at 37° C. for 4 hours with either 50 μg/ml of ^125I-LDL (specific activity: 209 cpm/ng) or 50 μg/ml of ^125I-VLDL (specific activity: 157 cpm/ng) in the absence or in the presence of 500 μM oleate. The cells are then washed and the quantities of ^125I-lipoproteins bound, incorporated and degraded are measured as described above in Example 1 (Bihain and Yen, 1992). The results shown in FIG. 23 represent the differences obtained between the cells incubated with or without oleate. Each point represents the mean of 3 measurements. The standard deviation for each point is included in the symbol.

LSR receptors [2] = tested on: LSR receptors; design: species or system mice; conditions: mouse
Procedure: The apparent number of LSR receptors on plasma membranes is measured as previously described (Mann et al., 1995) by estimating the quantity of LDL bound to a plasma membrane preparation. The plasma membranes (100 μg) are incubated with 1 mM oleate; they are then washed three times as indicated above, and then incubated for 1 hour at 37° C. with 40 μg/ml of ^125I-LDL. The quantity of ^125I-LDL bound to the plasma membranes is then determined by counting. The mean is established on 3 measurements per animal for 3 different animals in each of the groups.

LSR receptors [3] = experiment: Long-term treatment with leptin on ob/ob mice: LSR receptor number and LSR mRNA; assay type: in vivo
Procedure: The ob/ob obese mice received a daily injection of either leptin, or of an equivalent volume of sterile PBS, for 30 days. The injected doses are 50 μg/animal from day 0 to day 4, 100 μg/animal from day 5 to day 17, and 150 μg/animal from day 18 to day 30. Several parameters indicated below are measured: • the weight (FIG. 29 A): the change in weight is measured for 6 animals, over the duration of the treatment; • the postprandial lipemic response (FIG. 29 B): it is measured according to the protocol detailed in Example 5 on three animals in each group, on day 29; • the apparent number of LSR receptors (FIG. 29 C): it is measured according to the protocol detailed in Example 4 on three animals in each group, on day 30; • the quantity of LSR mRNA ([…]): it is estimated by Northern blotting as indicated in the protocol of Example 2.

LSR [4] = molecular target: T2, LSR (Homo sapiens, UniProt Q86X29); experiment: Effect of leptin on the LSR activity of human fibroblasts HF; assay type: cell-based; conditions: incubation with increasing leptin, 50 μg/ml 125I-LDL, 500 μM oleate
T2 construct: GM00486A, GM007001B, GM00488C; host or cells: human skin fibroblasts, normal or HF (familial hypercholesterolemia, LDL-receptor deficient)
T2 sequence (Q86X29 1-649) 1: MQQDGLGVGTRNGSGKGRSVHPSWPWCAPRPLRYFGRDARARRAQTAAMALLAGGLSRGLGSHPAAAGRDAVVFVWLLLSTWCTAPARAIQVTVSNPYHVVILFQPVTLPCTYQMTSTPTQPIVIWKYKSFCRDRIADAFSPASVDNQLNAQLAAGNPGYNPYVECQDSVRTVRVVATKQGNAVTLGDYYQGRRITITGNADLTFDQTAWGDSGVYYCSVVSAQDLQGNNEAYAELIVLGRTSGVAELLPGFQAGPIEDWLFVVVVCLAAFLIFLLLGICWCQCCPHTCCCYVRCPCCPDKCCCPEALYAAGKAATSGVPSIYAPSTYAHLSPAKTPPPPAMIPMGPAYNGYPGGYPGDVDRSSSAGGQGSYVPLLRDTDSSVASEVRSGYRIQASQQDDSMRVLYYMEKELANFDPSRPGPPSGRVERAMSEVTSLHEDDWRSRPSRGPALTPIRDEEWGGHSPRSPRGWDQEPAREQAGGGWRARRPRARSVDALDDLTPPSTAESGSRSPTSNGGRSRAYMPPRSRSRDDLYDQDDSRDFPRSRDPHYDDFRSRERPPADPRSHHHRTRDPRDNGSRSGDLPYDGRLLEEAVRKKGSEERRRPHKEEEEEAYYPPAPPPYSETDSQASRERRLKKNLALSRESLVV
T2 sequence (Q86X29 1-649) 2: T2 sequence (Q86X29 1-649) 1
Procedure: The fibroblasts HF are incubated for 30 minutes at 37° C. with increasing concentrations of leptin, and then for 2 hours at 37° C. with 50 μg/ml of ^125I-LDL, in the presence of 500 μM oleate. The binding, internalization and degradation of the LDLs are measured as indicated in Example 1.

- binding, internalization and degradation of VLDLs and LDLs (LSR [1]): increases
- quantity of mRNA encoding the subunits of the LSR receptor (LSR receptors [3]; leptin 30 days, Northern blotting of liver RNA): increase
- LSR activity of human fibroblasts HF (LSR [4]): increased
B1: leptin: mouse recombinant leptin with hexahistidine end, expressed in E. coli (protein, UniProt P41160 22-167, looked up)
Leptin: VPIQKVQDDTKTLIKTIVTRINDISHTQSVSAKQRVTGLDFIPGLHPILSLSKMDQTLAVYQQVLTSLPSQNVLQIANDLENLRDLLHLLAFSKSCSLPQTSGLQKPESLDGVLEASLYSTEVVALSRLQGSLQDILQQLDVSPEC
modifications: hexahistidine tag
notes: mouse recombinant leptin with hexahistidine end, expressed in E. coli
- apparent number of LSR receptors expressed at the surface of the hepatocytes in vivo (LSR receptors [2]): increase
- apparent number of LSR receptors at the surface of the cells (LSR receptors [3]; day 30 of leptin treatment): increase
